Test: soluble on expression in E. coli; label from the status in PepcDB or PDB records

| Sequence | soluble on expression in E. coli |
| --- | --- |
| MPLKGFEIIKSMITLLFLYQAIIRNFEEIVQFLGKIMGCGSSSPAEVAPAEIIEPSPSSDVPSDPKIPTSYRPSIISLQIPNEFGDDVSSDALSDRSDAQEENVDYLYATDVTLQWLLERIYDKFKKPIPEDPQWIIERLNRPSWDLDYATSSVVRVTFGWDDDELPRSVVLKTPVAKDQRDDEEGKYHYIMFKRECNVYEWTQKFPKLIAPKIIHIKKHSKEGSGVVVMEDVSEKGQEQDPVKGLMLEVVRDLLKQIAYLHSISLKHTSWSTLVADLPPSYYAHTIGSFDDTLTFFERQDVDHSRFVHIGKYFSDEYLHSTATETTELLDIPKVLVHGEPYASNVFTKMEGKEQRILSLIDWTEGHSGCFAEDVAKIICWNLNAKERVDNTSSLLEGYHFHLARYYDGDCPFTVDIIQRAYEVFVPFAMVSLCGKVMSVKNKTEKEPLIERAKSLIQQVYAMERLNES | not soluble |
| MPLPFSIISTTSQDVLEDADSDEEAETFYVNWITEKNHSFPQSMVLELEEESLVSSVKLIVHKDYPPSSLTVSLGIPSNHFRNSRGKSYNADYSVRQELSFRDDFHVEYGQKHPKATVFFNSPAKFVRISVHGFSDSDVNHHRQVSILSVIISGAGEILPFDSHLKDEPKQTEMSYIELDKGILLPLKSKPKMRETKTIVGLYDTDSEDEEILFSKEMLNRLRKREAVMKNPQLPTTSAITETIAIDTSCEKSAPVSSSSSSKQQSSVSPPLSDRSKKQILDEILGIDEKGNKGKPRKEVYFGSRMSEFNNMLRLLERKREESIWEEKYAQASAIDESVKDLKSREAGLRELIIEREDALKGKDLIAAQR | not soluble |
| MPLSDADYNDPDNEEVAFLSRGLLEACIEFIRETPAGDALRIVAYEFTFKRILLELKAALERGVDVRIVYHATTANEKAIADAKLPENSKGVQILFKRTRPQTPHNKFIVRLKKGKTPVSVWTGSTNFTPSGFLGQTNVGHKVTDGDIAKIYLQLWEGLKADPDDFDATQAAMALTPLEHHHHHH | soluble |
| MPLSGEYAPSPLDWSREQADTYMKSGGTEGTQLQGKPVILLTTVGAKTGKLRKTPLMRVEHDGQYAIVASLGGAPKNPVWYHNVVKNPRVELQDGTVTGDYDAREVFGDEKAIWWQRAVAVWPDYASYQTKTDRQIPVFVLTPVRAGG | soluble |
| MPMVRVATNLPNEKVPVDFEIRLTDLLARSMGKPRERIAVEIAAGARLVHGATHDPVTVISIKSIGAVSAEDNIRNTAAITEFCGKELGLPKDKVVITFHDLPPATVGFNGTTVAEANKK | not soluble |
| MPNIVLSRIDERLIHGQVGVQWVGFAGANLVLVANDEVAEDPVQQNLMEMVLAEGIAVRFWTLQKVIDNIHRAADRQKILLVCKTPADFLTLVKGGVPVNRINVGNMHYANGKQQIAKTVSVDAGDIAAFNDLKTAGVECFVQGVPTEPAVDLFKLL | soluble |
| MPNMGIEKLYVSQQLTDSAAGMTFTKPQYYKYVQELSLKPKVNSASAYAENRKVDQDTQFDSCDVSINLFQMTSSQRAFMLGQSLAGGGGAIGALNDKAPWITLLYKAPIKVDDTIYYRYGVIYKTQFQPPDDDYKTTEGKPDFSQVPKISGSAQPTEWSFKDGKLEKHPWEWHVDTCDPNCPENIDDTWFNSVSIPSLVTYGSLSLSASSPKDGATGISLDTKPSLTFNNPIMNATSILLYNVSDGATVNTTTSSDSSGKIITITPSTNLVANKNYVLVVQDVTDLYGQTLDTQLIRFTTATAASLEHHHHHH | soluble |
| MPPAKTKPKFPLCRLPSESVTNVLKIMKLSEIFNLSETSLKARSIVELAMQTIPSHLDLQGFPSKNYKLTVENDGQKVQVQFPHATDALTNFKQKLFRICKTFQIKTASVYFSCPVEAHIIELLGFIKKRKVQFQDFSIKGSVTEQNFKFFMTIGAQRFHLDMSETQPVTEVFALLKIQEVVLQNAAISSQMLNKVLKAWKTTSRLKKFRVIKNWKMDTSVVFQGLHVKQKSRSDTKKEYEIDLDGGGKATCCFKFEKGSSTNGFEFIVIN | not soluble |
| MPPEMEGFLYLKSDGRKSWKKHYFVLRPSGLPPEMEGFLYLKSDGRKSWKKHYFVLRPSGLMYHDRRRTGFRQYETYMKQKQSADWQLDELLEELEALETQLNSSNGGDQLLLGVSGIPASSSRENVKSISTLPPPPPALSYHQTPQQPQLLHHHNNHLGYQNGIHQITSINSAASSCSSPDGDSAFGDSSSTESSNNRCRNSAFSSNDSCRDSLNTPSPTQVSPRNGELNAEEAKAQKIRQALEKMKEAKVTKIFVKFFVEDGEALQLLIDERWTVADTLKQLAEKNHIALMEDHCIVEEYPELYIKRVYEDHEKVVENIQMWVQDSPNKLYFMRRPDKYAFISRPELYLLTPKTSDHMEIPSGDQWTIDVKQKFVSEYFHREPVVYYAPKSKKPTTKDLTCLMNLHSNQVYTGIGWEKKYKSPTPWCISIKLTALQMKRSQFIKYICAEDEMTFKKWLVALRIAKNGAELLENYERACQIRRETLGPASSMSAASSSTAISEVPHSLSHHQRTPSVASSIQLSSHMMNNPTHPLSVNVRNQSPASFSVNSCQQSHPSRTSAKLEIQYDEQPTGTIKRAPLDVLRRVSRASTSSPTIPQEESDSDEEFPAPPPVASVMRMPPPVTPPKPCTPLTSKKAPPPPPKRSDTTKLQSASPMAPAKNDLEAALARRREKMATMEC | not soluble |
| MPPMHLLKSKVHIAEALNDETTMSLLKKIVSKKCISKISQWKNELSSNLDG | not soluble |
| MPPVYSQPELSISIAGLRLQRPVGNASGILGWEPREARLVEEGGGGFFVAKSVTYQPRKGYPQPHLYPVAGGIVNAVGLANPGFREASKMLAQTVEEASIPVIASIAGGAPGEWVEMASTLEEAGVSAVELNLSCPHFAGGGLELGQDPAAVASVVSAVASTLRIPVIAKLGYSDRLVDAASKALEAGARGLTLINSMRAMKIDVYAKKPVLGNRVGGLSGKPIHPIAVRAVYEVYGETRADIFAAGGVESWEDAVEFYLAGAKAVQVGAAFITIGPHVLRSIVEGVRRYLWVEGFRSLQDIVGYAHRA | soluble |
| MPQDMSQFLQVFFEETEEHLATLELLLIGLDLDRPDSETLHGIFRAAHSIKGSSGMFGFDDITAVTHELETLLDRIRCGQMHLRPDMISSFLEARDVLQRLLDAHRSGRPDPGVPLLETVERLRGWLRVPEQEAAEEGFGLFDDAPARETADDDAFGFFDEGPGAPERAAAPEAFGLFDEAPGAPAASEAFGLFDEAPGSPPAEERAFGLFDGAPGSPAAPSAPAQAVAAPARGAVAPVRGDGESGSIRVSVEKIDSLINLVGELVITQAMLGQLGEQLDPSRHERLQHALAQLEHNTRDLQESVMSIRMLPINFIFSRFPRLVRDTATRLGKQVELHLHGEHTELDKSVIEKLSDPLTHIVRNSIDHGIETPAERLAAGKPASGTVKLAASHQGGSVVVEVSDDGRGLSRPRILAKARERNLPVHDGMSDAEVWQLVFMPGFSTAETVTELSGRGVGMDVVKRNIGAMGGRIDIDSAPGMGTRIGIRLPLTLAILDGLIVAVEAVNYVIPLTYIVESLQARSDDVRGLGGEDNAMIRVRGEYLPLFSLHELLRIGGEAPAPEQGIVVILESEGRSFALQVDELVGQQQVVIKSLEQNFRRVEGIAGATIMGDGSVALILDVDALPRLAAREDTADE | not soluble |
| MPQFLKGVTLENREGDELPAEEHLKGKIIGLYFSASWCPPCRAFTPKLKEFFEEIKKTHPEFEIIFVSRDRNSSDLVTYFKEHQGEWTYIPFGSDKIMSLMQKYEVKTIPAMRIVNDQGEVIVQDARTEIQNKGENVEGLWAEWMALIK | not soluble |
| MPQILVDADACPVKAEIKQVAKEFQLEVTFVASFNHYSVNTNGENWIFVDTGKESADMRMMNLAKKGDIIVTQDIGLASILLAKGTFVFSNRGELYREEEMSLMLDIRYRHAKERQQGKYSKGPKAMSDQDRSLFKDRLTTFLQNKLEHHHHHH | soluble |
| MPREYEFAEKILFTEEEIRTRIKEVAKRIADDYKGKGLRPYVNPLVLISVLRGSFMFTADLCRALCDFNVPVRMEFICVSSYGEGLTSSGQVRMLLDTRHSIEGHHVLIVEDIVDTALTLNYLYHMYFTRRPASLKTVVLLDKREGRRVPFSADYVVANIPNAFVIGYGLDYDDTYRELRDIVVLRPEVYAEREAARQKKQRAIGSADTDRDAKREFHSKY | soluble |
| MPSAMNERTVAELEKLLRYIAANLKQRGREILTNYPITPPQFVALQWLLEEGDLTVGELSNKMYLACSTTTDLVDRMERNGLVARVRDEHDRRVVRIRLLEKGERIIEEVIEKRQRDLANVLESFSDEEIVVFERCLRKLHQEMTKE | soluble |
| MPSERRPFQTAFLSNRKTVGKLAERVQSRYDGLHKFKHICSAAMALIKEPLDKVKQRNEELEAAEEAAAQEALGREQEAARVSEWEERYKLSRSEFEQFWKGLPQTVQNKLQASQKTWKSGMDKICANNAKAEGKTPNGIKFSELACKTAKTEARLEELHNRKKALIDEMAREADKKELSKRL | not soluble |
| MPSETLWEIAKAEVEKRGINGSEGDGAEIAEKFVFFIGSKNGGKTTIILRCLDRDEPPKPTLALEYTYGRRAKGHNTPKDIAHFWELGGGTSLLDLISIPITGDTLRTFSLVLVLDLSKPNDLWPTMENLLQATKSHVDKVIMKLGKTNAKAVSEMRQKIWNNMPKDHPQDHELIDPFPVPLVIIGSKYDVFQDFESEKRKVICKTLRFVAHYYGASLMFTSKSEALLLKIRGVINQLAFGIDKSKSICVDQNKPLFITAGLDSFGQIGSPPVPENDIGKLHAHSPMELWKKVYEKLFPPKSINTLKDIKDPARDPQYAENEVDEMRIQKDLELEQYKRSSSKSWKQIELDS | not soluble |
| MPSFREDALSRIRHDGDFDAVVIGGGINGIAAYRDLALQGLRVLLVERNDFSSGCSAAPSRMIHGGLRYLENGEFGLVAESLRERDALLTLAPHMVQPLPTTIPIFSMFSGLFNAAATFFGSGGKPASRGALAIKAGLTLYDFVTRKNRLLPRHEFRGAGKTLKRWPGLTPDIRYSATYYDAWISQPERLALELLIDTSADAPQSIALNYAELVRNGDEYHIRAEETDETLPIRPRIIVNATGAWIDETIGTLSAGPAAEKQKPTVSGTKGSHLIIANDGLLKALNGHMIFFENADNRVCILFPYLGRVLAGSTDIKVDRPERVRCEPDERDYILDAIRQVFPDITVDHSDIVFSFSGIRPLPRSDAAFTGRISRSHFIHRVAGDPPQLCMIGGKWTTFRAFGEQVSDEVLAFLGRKRLTGTMNRPIGGGRNFPTGAGRLPALLSEQFSIDRRRAQHLALAYGSRAFELMGFCRGRPDDAPLSQKSPITAAEILWLIRCEHVRHLTDLILRRTTLAIAGLIDADLIDAILGVAARELGWTPTRAAVERQQLTQELETFYGVTPAMLQNRCKENALEHHHHHH | soluble |
| MPSGLEQCAPRCRALLQGESGVQIQGHYELKFEAVREAFAALFEDSQERGAALCIQVGGETVIDLWAGTADKDGAEAWHSDTIANLFSCTKTFTAVTALQLVAEGKLKLDAPVADYWPEFAAAGKAAITLRQLLCHQAGLPAVRELLPAQALYEWQTMVDALAAEQPWWTPGEGHGYAAITYGWLVGELIRRADGRGPGESIVARVARPLGLDFHVGLADEEFYRVAHIARGKGNMGDAAAQRLLQVTMREPDAMSTRAFTNPPSILTSTNKPEWRRMQQPAANGHGNARSLAGFYSGLLDGSLLEADMLEELTREHSLGMDKTLLTQTRFGLGCMLDQPQVANATFGLGARAFGHPGAGGSIGFADPEHDVAFGFVTNTLGPYVLMDPRAQKLVRVLSDCLLEHHHHHH | not soluble |
| MPSIYITGVDPTIVKIHEIQGTGTASPLVNNVVTIEAIVVGDFQDGDGDISRNLRGFYVQEEDADVDGNVATSEGIFIFENGNFITDVNVGDKVQITGTVDEFFGETQIDTITNITVISSGNTLPTAANITLPTAGTTESQGGTPQPDLEAFEGMLVKFTDTLTITEMFNLDRFNEIKLSQGGRPQQFTQFNDANVAGYGAYREEIGARTITYDDGLSVQNAEISNLDGFGSSFSTASDIRMGDTINNLTGVLSYQWAGNASSGATWRVRSAVDGTNQFTKVNDRPVTPENVGGSLKVTGFNVLNYFKTIDLEHHHHHH | not soluble |
